Consider 15 molecules from US20210388087A1 (Chugai, published 2021).

Positions count from the first letter of the chain named. Numbers in names are those of the source.

B1: Dual-Fab H183/L072 variant with single light chain mutation V51Y (Kabat) (antibody, name in Kabat numbering, V domains shown)
VH: QVQLVESGGGLVQPGRSLRLSCAASGFTFSNAWMHWVRQAPGKGLEWVAQIKDKGNAYAAYYAPSVKGRFTISRDDSKNSIYLQMNSLKTEDTAVYYCHYVHYASASTVLPAFGVDAWGQGTTVTVSS
VL: DIVMTQSPLSLPVTPGEPASISCQASQELVHMNRNTYLHWYQQKPGQAPRLLIYKYSNRFPGVPDRFSGSGSGTDFTLKISRVEAEDVGVYYCAQGTSVPFTFGQGTKLEIK
notes: expressed as an antibody in Expi293 and purified on Protein A; also called dBBDu183H / dBBDu072L V51Y
B2: Dual-Fab H183/L072 variant with single light chain mutation F96Y (Kabat) (antibody, name in Kabat numbering, V domains shown)
VH: B1 VH
VL: B1 VL with Y56V, F101Y
notes: expressed as an antibody in Expi293 and purified on Protein A; also called dBBDu183H / dBBDu072L F96Y
B3: Dual-Fab H183/L072 variant with single light chain mutation G91Y (Kabat) (antibody, name in Kabat numbering, V domains shown)
VH: B1 VH
VL: B1 VL with Y56V, G96Y
notes: expressed as an antibody in Expi293 and purified on Protein A; also called dBBDu183H / dBBDu072L G91Y
B4: Dual-Fab H183/L072 variant with single light chain mutation T92Y (Kabat) (antibody, name in Kabat numbering, V domains shown)
VH: B1 VH
VL: B1 VL with Y56V, T97Y
notes: expressed as an antibody in Expi293 and purified on Protein A; also called dBBDu183H / dBBDu072L T92Y
B5: Dual-Fab H183/L072 variant with single light chain mutation S93Y (Kabat) (antibody, name in Kabat numbering, V domains shown)
VH: B1 VH
VL: B1 VL with Y56V, S98Y
notes: expressed as an antibody in Expi293 and purified on Protein A; also called dBBDu183H / dBBDu072L S93Y
B6: Dual-Fab H183/L072 variant with single light chain mutation N53Y (Kabat) (antibody, name in Kabat numbering, V domains shown)
VH: B1 VH
VL: B1 VL with Y56V, N58Y
notes: expressed as an antibody in Expi293 and purified on Protein A; also called dBBDu183H / dBBDu072L N53Y
B7: Dual-Fab H183/L072 variant with single light chain mutation P95Y (Kabat) (antibody, name in Kabat numbering, V domains shown)
VH: B1 VH
VL: B1 VL with Y56V, P100Y
notes: expressed as an antibody in Expi293 and purified on Protein A; also called dBBDu183H / dBBDu072L P95Y
B8: Dual-Fab H183/L072 variant with single light chain mutation V94Y (Kabat) (antibody, name in Kabat numbering, V domains shown)
VH: B1 VH
VL: B1 VL with Y56V, V99Y
notes: expressed as an antibody in Expi293 and purified on Protein A; also called dBBDu183H / dBBDu072L V94Y
B9: Dual-Fab H183/L072 variant with single light chain mutation Q90Y (Kabat) (antibody, name in Kabat numbering, V domains shown)
VH: B1 VH
VL: B1 VL with Y56V, Q95Y
notes: expressed as an antibody in Expi293 and purified on Protein A; also called dBBDu183H / dBBDu072L Q90Y
B10: Dual-Fab H183/L072 variant with single light chain mutation R54Y (Kabat) (antibody, name in Kabat numbering, V domains shown)
VH: B1 VH
VL: B1 VL with Y56V, R59Y
notes: expressed as an antibody in Expi293 and purified on Protein A; also called dBBDu183H / dBBDu072L R54Y
B11: Dual-Fab H183/L072 variant with single light chain mutation S52Y (Kabat) (antibody, name in Kabat numbering, V domains shown)
VH: B1 VH
VL: B1 VL with Y56V, S57Y
notes: expressed as an antibody in Expi293 and purified on Protein A; also called dBBDu183H / dBBDu072L S52Y
B12: Dual-Fab H183/L072 variant with single light chain mutation P56Y (Kabat) (antibody, name in Kabat numbering, V domains shown)
VH: B1 VH
VL: B1 VL with Y56V, P61Y
notes: expressed as an antibody in Expi293 and purified on Protein A; also called dBBDu183H / dBBDu072L P56Y
B13: Dual-Fab H183/L072 variant with single light chain mutation A89Y (Kabat) (antibody, name in Kabat numbering, V domains shown)
VH: B1 VH
VL: B1 VL with Y56V, A94Y
notes: expressed as an antibody in Expi293 and purified on Protein A; also called dBBDu183H / dBBDu072L A89Y
B14: Dual-Fab H183/L072 variant with single light chain mutation F55Y (Kabat) (antibody, name in Kabat numbering, V domains shown)
VH: B1 VH
VL: B1 VL with Y56V, F60Y
notes: expressed as an antibody in Expi293 and purified on Protein A; also called dBBDu183H / dBBDu072L F55Y
B15: Dual-Fab H183/L072 variant with single light chain mutation T97Y (Kabat) (antibody, name in Kabat numbering, V domains shown)
VH: B1 VH
VL: B1 VL with Y56V, T102Y
notes: expressed as an antibody in Expi293 and purified on Protein A; also called dBBDu183H / dBBDu072L T97Y

T1 sequence (chain, as listed by the source limits assumed): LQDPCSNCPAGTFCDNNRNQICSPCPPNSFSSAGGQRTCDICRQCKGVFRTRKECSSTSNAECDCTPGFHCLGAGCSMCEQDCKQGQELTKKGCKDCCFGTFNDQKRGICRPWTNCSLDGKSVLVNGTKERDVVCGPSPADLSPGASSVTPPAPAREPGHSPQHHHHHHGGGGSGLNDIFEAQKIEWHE

This assay concerns the target T1, Human CD137 ECD (human).
T1 construct: also called human CD137 extracellular domain; hCD137
As to the kind of experiment: SPR (Biacore), affinity of single-mutation variant against parental H183/L072.
As to B1, the “fold change of affinity for CD137” value was 0.2 fold.
Under B2 stands 0.6 fold.
As to B3, the “fold change of affinity for CD137” value came out at 0 fold.
Under B4 stands 0 fold.
For B5, the “fold change of affinity for CD137” value was determined as 0.8 fold.
Regarding B6, the “fold change of affinity for CD137” value came out at 0.3 fold.
Turning to B7, the “fold change of affinity for CD137” value is 0 fold.
As to B8, the “fold change of affinity for CD137” value is 0.1 fold.
As to B9, the “fold change of affinity for CD137” value was 0 fold.
Consider B10, for which the “fold change of affinity for CD137” value was found to be 0.2 fold.
Consider B11, for which the “fold change of affinity for CD137” value stood at 1.2 fold.
Under B12 stands 0 fold; under B13, 0 fold; under B14, 0 fold.
Under B15 stands 0.3 fold.
